Consider 6 molecules from article PMC7764960, “Nucleus Accumbens-Associated Protein 1 Binds DNA Directly through the BEN Domain in a Sequence-Specific Manner”.

The target in one data set is T1, GST-NAC1 (Homo sapiens, UniProt Q96RE7 2-527).
T1 sequence: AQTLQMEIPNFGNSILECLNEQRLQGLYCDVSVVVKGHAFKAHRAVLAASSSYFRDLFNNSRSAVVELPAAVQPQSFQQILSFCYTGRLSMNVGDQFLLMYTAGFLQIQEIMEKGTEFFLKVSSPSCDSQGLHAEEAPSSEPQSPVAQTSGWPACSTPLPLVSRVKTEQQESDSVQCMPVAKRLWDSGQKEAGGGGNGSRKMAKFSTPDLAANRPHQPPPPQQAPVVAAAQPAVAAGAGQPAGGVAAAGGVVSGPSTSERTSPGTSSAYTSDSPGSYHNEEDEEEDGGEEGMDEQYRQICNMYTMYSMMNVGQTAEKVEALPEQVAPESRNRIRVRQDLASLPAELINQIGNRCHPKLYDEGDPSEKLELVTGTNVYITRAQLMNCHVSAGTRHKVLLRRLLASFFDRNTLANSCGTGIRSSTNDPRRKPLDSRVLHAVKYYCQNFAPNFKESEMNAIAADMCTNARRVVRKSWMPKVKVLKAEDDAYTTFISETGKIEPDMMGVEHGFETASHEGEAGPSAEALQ
Kind of data set: pull-down; poly(dI/dC); ITC: 20 mM HEPES pH 7.0, 0.1 M NaCl, 1 mM TCEP, 20 C (Fig 2 legend says 25 C); pull-down: 4 C with 10 ug poly(dI/dC), buffer not stated; NMR 298 K. The settings on record: protein: recombinant; tags: GST N-term; chain copies: 2; label: 5' biotin on sense strand; blunt.

Data set [1] addresses T2, NAC1 (322-485) (Homo sapiens, UniProt Q96RE7 322-485).
T2 sequence: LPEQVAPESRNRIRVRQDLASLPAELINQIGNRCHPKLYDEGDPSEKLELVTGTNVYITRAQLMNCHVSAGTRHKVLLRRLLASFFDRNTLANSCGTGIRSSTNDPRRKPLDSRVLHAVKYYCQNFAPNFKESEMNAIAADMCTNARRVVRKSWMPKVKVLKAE
The data set is described as follows: ITC; first of two sequential events (Kd1); ITC: 20 mM HEPES pH 7.0, 0.1 M NaCl, 1 mM TCEP, 20 C (Fig 2 legend says 25 C); pull-down: 4 C with 10 ug poly(dI/dC), buffer not stated; NMR 298 K. The settings on record: protein: recombinant; tags: His (pET28HisTEV); blunt. For orientation: In ITC the heat of successive injections is recorded.

Data set [2] addresses T2, NAC1 (322-485). Kind of data set: ITC; single event; ITC: 20 mM HEPES pH 7.0, 0.1 M NaCl, 1 mM TCEP, 20 C (Fig 2 legend says 25 C); pull-down: 4 C with 10 ug poly(dI/dC), buffer not stated; NMR 298 K. The conditions noted are these: protein: recombinant; tags: His (pET28HisTEV); blunt.
Data set [3] concerns the target T2, NAC1 (322-485). Kind of data set: ITC; single event; Table S2 prints 0.83; ITC: 20 mM HEPES pH 7.0, 0.1 M NaCl, 1 mM TCEP, 20 C (Fig 2 legend says 25 C); pull-down: 4 C with 10 ug poly(dI/dC), buffer not stated; NMR 298 K. The conditions noted are these: protein: recombinant; tags: His (pET28HisTEV); blunt.

B1: Biotin-GP1 3'-mut (dsDNA)
DNA 1: TGTGTGTGTATGCATGACGGTATTTATT
DNA 2: AATAAATACCGTCATGCATACACACACA
Turning to B1, in the data set with GST-NAC1, the binding result is “binds”.

B2: GP1 14-mer dsDNA (dsDNA)
DNA 1: GTATGCATGTATGT
DNA 2: ACATACATGCATAC
As a reminder, the Kd is a measure of binding affinity in units of concentration. With B2, the Kd with NAC1 (322-485) [1] amounted to 160 nM.

B3: Biotin-GP1 5'-mut (dsDNA)
DNA 1: TGTGTGTGTCATCATGTATGTATTTATT
DNA 2: AATAAATACATACATGATGACACACACA
Take B3: the binding result in the data set with GST-NAC1 is “binds”.

B4: de novo motif 1 (dsDNA)
DNA 1: AACCGCCGCCAA
DNA 2: TTGGCGGCGGTT
Regarding B4, the dissociation constant (Kd) in the data set with NAC1 (322-485) [2] is 3000 nM.

B5: de novo motif 2 (dsDNA)
DNA 1: AACCCCGCCCCAA
DNA 2: TTGGGGCGGGGTT
In the case of B5, the Kd with NAC1 (322-485) [3] came to 820 nM.

B6: Biotin-GP1 (dsDNA)
DNA 1: TGTGTGTGTATGCATGTATGTATTTATT
DNA 2: AATAAATACATACATGCATACACACACA
With B6, the binding result with GST-NAC1 is recorded as “binds”.
